The target in this assay is HIV-1 BaL envelope glycoprotein gp120 (head of the virion Env spike) (HIV-1 BaL). Description: cryo-EM structure; cryoelectron tomography of vitrified AT-2-treated HIV-1 BaL virions in PBS; 300 kV, pixel 5.56 A; spike subvolumes (2,070 kept) aligned, classified into eight classes and averaged with missing-wedge compensation, no symmetry imposed; head and leg regions also aligned and classified separately.

In the case of “HIV-1 BaL envelope glycoprotein gp120 (head of the virion Env spike) (natural protein)”, the stoichiometry N stood at 3.

What is called stoichiometry N is a count of units in the complex or per binding partner.

Values taken from paper PMC2577619.
